Experimental findings from article PMC12187869, “Transport of the uremic toxin symmetric dimethylarginine (SDMA) by renal transport proteins” (Amino Acids, 2025) are described below.

Substrate in this series: CN=C(NC)NCCC[C@H](N)C(=O)O
The experiment in a line: [3H]SDMA uptake kinetics (Km) and efflux in HEK-OATP4C1 cells. It is filed as cell-based, Homo sapiens.

B1: OATP4C1 (Homo sapiens) (protein)
chain: MKSAKGIENLAFVPSSPDILRRLSASPSQIEVSALSSDPQRENSQPQELQKPQEPQKSPEPSLPSAPPNVSEEKLRSLSLSEFEEGSYGWRNFHPQCLQRCNTPGGFLLHYCLLAVTQGIVVNGLVNISISTVEKRYEMKSSLTGLISSSYDISFCLLSLFVSFFGERGHKPRWLAFAAFMIGLGALVFSLPQFFSGEYKLGSLFEDTCVTTRNSTSCTSSTSSLSNYLYVFILGQLLLGAGGTPLYTLGTAFLDDSVPTHKSSLYIGTGYAMSILGPAIGYVLGGQLLTIYIDVAMGESTDVTEDDPRWLGAWWIGFLLSWIFAWSLIIPFSCFPKHLPGTAEIQAGKTSQAHQSNSNADVKFGKSIKDFPAALKNLMKNAVFMCLVLSTSSEALITTGFATFLPKFIENQFGLTSSFAATLGGAVLIPGAALGQILGGFLVSKFRMTCKNTMKFALFTSGVALTLSFVFMYAKCENEPFAGVSESYNGTGELGNLIAPCNANCNCSRSYYYPVCGDGVQYFSPCFAGCSNPVAHRKPKVYYNCSCIERKTEITSTAETFGFEAKAGKCETHCAKLPIFLCIFFIVIIFTFMAGTPITVSILRCVNHRQRSLALGIQFMVLRLLGTIPGPIIFGFTIDSTCILWDINDCGIKGACWIYDNIKMAHMLVAISVTCKVITMFFNGFAIFLYKPPPSATDVSFHKENAVVTNVLAEQDLNKIVKEG
notes: HEK293 cells stably expressing human OATP4C1
What is called Km is the substrate concentration at which the rate is half of its maximum. For the protein B1, the Km is recorded as 70 µM.
